Molecular target: Her2 on SKBR3 cells (human (endogenous in SKBR3)) (UniProt P04626)
Assay: flow cytometry on cells; 200,000 SKBR3 cells per sample incubated on ice for 60 min with serial dilutions of antibody or ADC in FACS buffer (DPBS, 1% BSA); detected with Alexa 647 goat anti-human IgG; mean fluorescence intensities fitted with a one-site specific binding equation

Kd: 7.6 nM
Substance: Trastuzumab^CF MMAF (AB4285) LC-S7 (antibody)

Source: PMC5465077
